For data set [1], the target named is T1, SIV integrase (Simian immunodeficiency virus) (UniProt P05897).
T1 sequence: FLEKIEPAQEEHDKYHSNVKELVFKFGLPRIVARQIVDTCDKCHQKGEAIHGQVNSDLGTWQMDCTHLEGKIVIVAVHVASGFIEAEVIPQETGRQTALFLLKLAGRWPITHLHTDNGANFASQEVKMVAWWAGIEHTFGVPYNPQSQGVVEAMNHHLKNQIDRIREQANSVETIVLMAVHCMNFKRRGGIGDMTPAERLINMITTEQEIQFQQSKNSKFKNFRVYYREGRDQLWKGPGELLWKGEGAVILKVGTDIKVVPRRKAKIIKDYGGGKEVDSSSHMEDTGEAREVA
The data set is described as follows: inhibition. The note with it: PS at first and last internucleoside linkages, 3'-OH; 3'-processing.

The target of data set [2] is HIV-1 integrase wild-type (IN1-288) (HIV-1) (UniProt P12497). In words: inhibition. The note with it: 3'-processing.

This is an account of results in patent publication US6323185.

For the sequence “GTGGTGGGTGGGTGGGT [T30177 (AR177, Zintevir)]”, the half-maximal inhibitory concentration (IC50) in data set [1] was 420 nM.
“TCTTCCTCTCTCTACCCACGCTCIC [T30662 antisense GEM91 variant pPT]” came in with a half-maximal inhibitory concentration (IC50) in data set [2] (PS at first and last linkages, strand transfer >0.5 uM) of more than 500 nM.
In turn, “TCTTCCTCTCTCTACCCACGCTCIC [T30531 antisense GEM91 variant PT]” came in with an IC50 in data set [2] (all PS, strand transfer 0.036 uM) of 30 nM.
As to “TCTTCCTCTCTCTACCCACGCTCIC [T30658 antisense GEM91 variant PD]”, in data set [2] (all phosphodiester, strand transfer >0.5 uM), the concentration for half-maximal inhibition (IC50) is more than 500 nM.
